The values that follow come from article PMC11869522, “Competitive displacement of lipoprotein lipase from heparan sulfate is orchestrated by a disordered acidic cluster in GPIHBP1” (Journal of Lipid Research, 2025).

For one data set, the system named is bLPL. Put plainly: PCSK3 cleavage of LPL (SDS-PAGE densitometry). The format is biochemical, bovine. Particulars: 20 μM bLPL, 25°C; for protection of LPL against ANGPTL4-induced cleavage by PCSK3 / protection of LPL against PCSK3 cleavage triggered by spontaneous unfolding: 0–240 min; for protection of LPL against PCSK3 cleavage triggered by spontaneous unfolding: 4 units PCSK3, without ANGPTL4, 25 μM GPIHBP1 variant. As to the method:
To determine if charge-variants of GPIHBP1 confer distinct resistance to ANGPTL4-facilitated cleavage of LPL after Arg^324 by PCSK3 ([33]), we incubated purified bLPL (20 μM) with PCSK3 (4 units) for 0–240 min, either alone or in the presence of ANGPTL4 (2 μM) and/or GPIHBP1 (25 μM) at 25°C in 10 mM 2-(N-morpholino) ethane sulfonic acid (MES), 150 mM NaCl, 1 mM CaCl2, pH 7.0. We tested four different GPIHBP1 variants: GPIHBP1^1–131, GPIHBP1^Cluster1-neutral, GPIHBP1^Cluster2-neutral, and GPIHBP1^34–131 (LU domain only). PCSK3 cleavage was stopped by boiling in SDS-PAGE sample buffer (reduced and alkylated) and the degree of cleavage was assessed by SDS-PAGE using 12% Bis-Tris SDS-PAGE gels followed by densitometric scanning of the corresponding Coomassie blue–stained SDS-polyacrylamide gels.
Secretion of LPL by adipocytes is modulated in an autocrine manner by ANGPTL4. […] In the presence of endogenous ANGPTL4, a significant fraction of LPL was cleaved by PCSK3 in the trans-Golgi compartment. […] The presence of GPIHBP1 dramatically delayed PCSK3 cleavage of LPL ([33]). To assess the role of the acidic tail in GPIHBP1 on this delay, we incubated 20 μM bLPL with 4 units of PCSK3 either alone or in the presence of 2 μM ANGPTL4. We observed that the presence of sub-stoichiometric amounts of ANGPTL4 reduced the half-life of intact bLPL from 110 min to less than 5 min (Fig. 5A). […] Our results emphasized the essential role of GPIHBP1’s acidic tail in protecting LPL against ANGPTL4-induced cleavage by PCSK3.
Fig. 5 GPIHBP1 reduces ANGPTL4-facillitated PSCK3 cleavage of LPL. 20 μM bLPL was incubated with 4 units of PSCK3 for 0–240 min at 25°C and the extent of LPL cleavage after Arg^324 was assessed by densitometric scanning of Coomassie–blue stained polyacrylamide after SDS-PAGE of reduced and alkylated samples. A: PSCK3 cleavage of LPL is accelerated by the presence of 2 μM ANGPTL4—present at sub-stoichiometric amounts compared to bLPL (20 μM). 25 μM intact GPIHBP1, but not GPIHBP1^34–131 mitigates PSCK3 cleavage of LPL. B: Both GPIHBP1^Cluster1-neutral and GPIHBP1^Cluster2-neutral rescue LPL from cleavage by PSCK3 in the absence of ANGPTL4 and both are more efficient than GPIHBP1^34–131. C: in the presence of 2 μM ANGPTL4, 25 μM GPIHBP1^Cluster1-neutral protects LPL from PSCK3 cleavage more efficiently than the GPIHBP1^Cluster2-neutral, which indicates a more prominent role of acidic cluster 2 in protecting LPL from ANGPTL4-catalyzed unfolding and subsequent PSCK3 cleavage. Shown are the mean values (±SEM) for intact LPL relative to that present at time 0 min for 3–5 independent time-course experiments. Some curves appear in multiple panels to increase clarity.

A further data set deals with bovine LPL. Description: Native PAGE binding to bovine LPL. Particulars: 4 µM LPL with 18 µM GPIHBP1, 30 min on ice; Coomassie staining. As to the method: Distinct impacts of disordered acidic clusters in GPIHBP1
To confirm interactions between puri fi ed human GPIHBP11–131, G P IH B P 1 Cluster1-neutral, or GPIHBP1 Cluster2-neutral with human, mouse, and bovine LPL, these protein pairs were incubated for 30 min on ice (4 µM LPL with 18 µM GPIHBP1) before they were analyzed by native PAGE. As th ese concentrations were well above t he K D of 0.2 nM for the wildtype LPL•GPIHBP1 interaction, LPL is saturated with GPIHBP1 in these experiments (1). […]
spect r a for the purified GPIHBP1 variants wer e r ecor ded at 25°C in Helman cuvettes (path- length of 1 mm) with a scan rate of 50 nm/ min c ove r i ng the range of 190- 250 nm, averaging three scans for each protein. Spectra for the pr ote i ns were compared after converting to molar ellipticity using the following equation, […] where, Mw is the molecular weight of the protein, c is the protein concentration in g/l, l is the pat h-length of the cuvette, Nr number of amino acid residues in the protein.
Figure S1 : Binding of GPIHBP1 charge mutants to LPL as assessed by Native PAGE. The electrophoretic mobility of GPIHBP1 variants alone or in presence of purified human LPL ( A), b ovine LPL (B), and murine LPL (C) was assessed by native PAGE followed by Coomassie blue staining. […]

Setting [1] is: 4 units PCSK3, 2 μM ANGPTL4, 25 μM GPIHBP1 variant.

B1: GPIHBP1^Cluster2-neutral: GPIHBP1 mutant with all Glu/Asp replaced by Gln/Asn at residues 19–30 (protein)
chain: QTQQEEEEEDEDHGPDDYNQQNQNQVQQQQTNRLPGGGSRVLLRCYTCKSLPRDERCNLTQNCSHGQTCTTLIAHGNTESGLLTTHSTWCTDSCQPITKTVEGTQVTMTCCQSSLCNVPPWQSSRVQDPTG
modifications: Tyr18 sulfation absent; one bi-antennary N-linked glycosylation; left off: uPAR domain III, N-terminal, cleaved
As for B1, the “protection of LPL against ANGPTL4-induced cleavage by PCSK3” value in the data set with bLPL (setting [1]) is recorded as “marginal protection”. Also, in the data set with bLPL, the “protection of LPL against PCSK3 cleavage triggered by spontaneous unfolding” value was “prevented that cleavage completely”. The “binding to bLPL as judged by native PAGE” value with bovine LPL is on record as “bound”.

B2: GPIHBP1^Cluster1-neutral: GPIHBP1 mutant with all Glu/Asp replaced by Gln/Asn at residues 1–17 (protein)
chain: QTQQQQQQQNQNHGPNNYDEEDEDEVEEEETNRLPGGGSRVLLRCYTCKSLPRDERCNLTQNCSHGQTCTTLIAHGNTESGLLTTHSTWCTDSCQPITKTVEGTQVTMTCCQSSLCNVPPWQSSRVQDPTG
modifications: Tyr18 sulfation present in less than 40%; one bi-antennary N-linked glycosylation; left off: uPAR domain III, N-terminal, cleaved
B2: the “protection of LPL against ANGPTL4-induced cleavage by PCSK3” value in the data set on bLPL (setting [1]) is listed as “significant protection”. In addition, in the data set with bLPL (4 units PCSK3, 2 μM ANGPTL4, 25 μM GPIHBP1 variant, pH 7.0, less than 5 min without GPIHBP1), the “half-life of intact LPL” value came out at 25 min. The “protection of LPL against PCSK3 cleavage triggered by spontaneous unfolding” value with bLPL is “prevented that cleavage completely”. For the same molecule, the “binding to bLPL as judged by native PAGE” value in the data set with bovine LPL is recorded as “bound”.
